Changes are numbered by the printed parent chain. In names and notes the source's numbering stands.
Columns and labels:
[1] = tested on: GCase variants in HEK 293T cells; test: GCase activity in LE fractions after co‐expression of GCase variants with FL‐LIMP‐2; assay type: cell-based, human; conditions: versus FL‐LIMP‐2‐3xD
Protocol: (§1) HEK 293T cells (Leibniz Institute DSMZ‐German Collection of Microorganism and Cell Cultures GmbH, Braunschweig, Germany) were cultured on TC dishes (Sarstedt, Nümbrecht, Germany, #83.3902, #83.3903) in Dulbecco's modified eagle medium (DMEM, Gibco, Carlsbad, CA, United States) supplemented with 10% fetal calf serum (FCS, PANbiotech, Aidenbach, Germany) and 1× penicillin/streptomycin (Sigma‐Aldrich, St. Louis, MO, United States, #P0781) at 37 °C, 5% CO2 and 95% humidity. Passaging was done at 70–90% confluence by detaching with trypsin (PAN‐Biotech, Aidenbach, Germany, #P10‐023100) for 5 min and transferring part of the culture to a new dish containing fresh medium. The HEK 293T cells were transfected using PEI at 60–70% confluence. For a 10 cm TC dish, the transfection mix was prepared by adding 5 µg plasmid DNA, 15 µg of PEI (ratio of 1:3 DNA to PEI) to 300 µl DMEM without FCS. After incubation for 25 min at room temperature, the mix was added to the cells. If the cell supernatant was analyzed, the cells were washed twice with phosphate‐buffered saline (PBS, Gibco, Carlsbad, CA, United States) and the medium was changed to DMEM without FCS 16 h after transfection.
Activity of GCase‐containing samples (recombinant protein, cell lysate, LE fractions, conditioned culture medium) was measured using the synthetic substrate 4‐methylumbelliferyl‐β‐D‐glucopyranoside (4MU, Merck Millipore, Billerica, MA, United States, #M3633). […] of the sample (cell supernatant, SEC fractions) or 2.5 µg of total protein from whole‐cell lysates were added to the well of a black 96‐well Maxisorp plate (ThermoFisher Scientific Inc., Waltham, MA, United States, #437 111). The reaction volume was then increased to 100 µL with GCase activity buffer (see paragraph “Cell Lysis”) and a final concentration of 1 µM of 4MU substrate was added. After incubation at 37 °C for 30 min, the reaction was stopped by adding 100 µL of stop solution (0.1 M glycine, pH 10.4). GCase activity was quantified via fluorescence of released 4‐methylumbelliferone (endpoint measurement) using an Infinite 200 Pro (TECAN, Männedorf, Switzerland), SpectraMax Gemini (Molecular Devices, San José, CA, United States) or ClarioStar (BMG LABTECH, Ortenberg, Germany) multiplate reader (λ ex: 365 nm; λ em: 445 nm).
For evaluation, all data sets obtained for GCase enzymatic activity were baseline‐corrected and normalized to the overall signal (either total signal or average of controls) within each replicate experiment to correct for signal differences between different measurement devices and replicate measurements.

[2] = tested on: GCase variants in HEK 293T cells; test: Western blot of GCase in LE fractions after co‐expression with FL‐LIMP‐2; assay type: cell-based, human; conditions: versus FL‐LIMP‐2‐3xD
Protocol: SDS PAGE was performed using a Tris‐glycine buffer system (resolving buffer: ThermoFisher Scientific Inc., Waltham, MA, United States, #HC2215; stacking buffer: ThermoFisher Scientific Inc., Waltham, MA, United States, #HC2115; running buffer: 25 mM Tris, 192 mM glycine, […]). All samples were prepared by adding 5× Laemmli buffer (0.3 M Tris‐HCl, pH 6.8, 10% w/v SDS, 50% v/v glycerol, 5% v/v β‐mercaptoethanol, 5% w/v bromophenol blue) to the samples in a 1:5 ratio and heating the samples for 5 min at 95 °C. The samples were then separated over a 10% polyacrylamide gel. After SDS PAGE, wet blotting was performed to transfer the proteins onto a PVDF membrane (Merck Millipore, Billerica, MA, United States, #IPFL00010). […] After incubation, membranes were washed three times with TBS‐T (TBS + 0.1% v/v TWEEN‐20) before incubation with secondary antibodies for 2 h at RT followed by three more washing steps with TBS‐T. The fluorescence‐based acquisition was done using an Odyssey (LI‐COR Biosciences, Lincoln, NE, United States) or IBright (ThermoFisher Scientific Inc., Waltham, MA, United States) imaging system. […]
Quantification of western blot data was performed in ImageStudioLite 5.2 (LI‐COR Biosciences, Lincoln, NE, United States). […]

[3] = tested on: GCase variants in HEK 293T cell lysates; test: GCase activity in cell lysates of cells overexpressing GCase variants; assay type: cell-based, human; conditions: 4MU; for GCase activity compared with mock: cell lysates, N370S n = 3, L444P n = 5
Protocol: as §1
Harvested cells were washed three times with cold PBS and pelleted (1.000 × g, 3 min, 4 °C). […] Protein concentrations were determined using Pierce BCA Protein Assay Kit (ThermoFisher Scientific Inc., Waltham, MA, United States, #23 227).
Activity of GCase‐containing samples (recombinant protein, cell lysate, LE fractions, conditioned culture medium) was measured using the synthetic substrate 4‐methylumbelliferyl‐β‐D‐glucopyranoside (4MU, Merck Millipore, Billerica, MA, United States, #M3633). […] GCase activity was quantified via fluorescence of released 4‐methylumbelliferone (endpoint measurement) using an Infinite 200 Pro (TECAN, Männedorf, Switzerland), SpectraMax Gemini (Molecular Devices, San José, CA, United States) or ClarioStar (BMG LABTECH, Ortenberg, Germany) multiplate reader (λ ex: 365 nm; λ em: 445 nm). […]

GCase variants = conditions: cited from earlier work
Excerpt: The link between GCase and PD was first established when studies found an increased prevalence of PD in GD patients and their relatives.^[ [14], [15], [16] ^] […] All three variants are characterized by compromised stability and/or enzyme activity. The L444P variant ...

B1: FL‐LIMP‐2: full‐length, membrane‐anchored wt LIMP‐2 (protein, UniProt Q14108 1-478, looked up)
chain: MGRCCFYTAGTLSLLLLVTSVTLLVARVFQKAVDQSIEKKIVLRNGTEAFDSWEKPPLPVYTQFYFFNVTNPEEILRGETPRVEEVGPYTYRELRNKANIQFGDNGTTISAVSNKAYVFERDQSVGDPKIDLIRTLNIPVLTVIEWSQVHFLREIIEAMLKAYQQKLFVTHTVDELLWGYKDEILSLIHVFRPDISPYFGLFYEKNGTNDGDYVFLTGEDSYLNFTKIVEWNGKTSLDWWITDKCNMINGTDGDSFHPLITKDEVLYVFPSDFCRSVYITFSDYESVQGLPAFRYKVPAEILANTSDNAGFCIPEGNCLGSGVLNVSICKNGAPIIMSFPHFYQADERFVSAIEGMHPNQEDHETFVDINPLTGIILKAAKRFQINIYVKKLDDFVETGDIRTMVFPVMYLNESVHIDKETASRLKSMINTTLIITNIPYIIMALGVFFGLVFTWLACKGQGSMDEGTADERAPLIRT
modifications: full-length
With B1 the “GCase activity in LE fractions, E326K” value ([1]; co‐expression with GCase E326K) was “significant increases”, the “GCase transport and activity, L444P” value ([1]; co‐expression with GCase L444P) was “both transport and activity could not be rescued by LIMP‐2” and the “GCase activity in LE fractions, N370S” value ([1]; co‐expression with GCase N370S) was “no increase in enzymatic activity could be determined”. The “GCase activity in LE fractions, wt” value ([1]; co‐expression with GCase wt) was “significant increases” and the “lysosomal GCase levels of wt, E326K and N370S” value [2] was “exceeded those of the FL‐LIMP‐2‐3xD control”.

B2: E326K: PD‐associated GCase variant (protein)
chain: ARPCIPKSFGYSSVVCVCNATYCDSFDPPTFPALGTFSRYESTRSGRRMELSMGPIQANHTGTGLLLTLQPEQKFQKVKGFGGAMTDAAALNILALSPPAQNLLLKSYFSEEGIGYNIIRVPMASCDFSIRTYTYADTPDDFQLHNFSLPEEDTKLKIPLIHRALQLAQRPVSLLASPWTSPTWLKTNGAVNGKGSLKGQPGDIYHQTWARYFVKFLDAYAEHKLQFWAVTAENEPSAGLLSGYPFQCLGFTPEHQRDFIARDLGPTLANSTHHNVRLLMLDDQRLLLPHWAKVVLTDPEAAKYVHGIAVHWYLDFLAPAKATLGKTHRLFPNTMLFASEACVGSKFWEQSVRLGSWDRGMQYSHSIITNLLYHVVGWTDWNLALNPEGGPNWVRNFVDSPIIVDITKDTFYKQPMFYHLGHFSKFIPEGSQRVGLVASQKNDLDAVALMHPDGSAVVVVLNRSSKDVPLTIKDPAVGFLETISPGYSIHTYLWRRQ
In the case of B2, the “residual activity of GCase variant” value ([3]; HEK 293T cell lysates, versus wt, n = 5, mean ± SEM) is given as 40.0 ± 2.2% and the “residual activity of GCase variant (literature)” value (GCase variants) is given as “≈ 40%”.

B3: L444P: disease‐associated GCase variant (protein)
chain: B2 chain with K326E, L444P
For B3, the “GCase activity compared with mock” value [3] is listed as “do not differ significantly from the mock” and the “stability and activity of GCase variant (literature)” value (GCase variants) is listed as “impaired stability and highly impaired activity”.

B4: N370S: disease‐associated GCase variant (protein)
chain: B2 chain with K326E, N370S
For B4, the “GCase activity compared with mock” value [3] is given as “do not differ significantly from the mock” and the “stability and activity of GCase variant (literature)” value (GCase variants) is given as “stable with low residual activity”.
